Experimental data: IntAct's records for PubMed 36126419

B1: 3-mercaptopyruvate sulfurtransferase (Homo sapiens), P25325 (parent)
chain: MASPQLCRALVSAQWVAEALRAPRAGQPLQLLDASWYLPKLGRDARREFEERHIPGAAFFDIDQCSDRTSPYDHMLPGAEHFAEYAGRLGVGAATHVVIYDASDQGLYSAPRVWWMFRAFGHHAVSLLDGGLRHWLRQNLPLSSGKSQPAPAEFRAQLDPAFIKTYEDIKENLESRRFQVVDSRATGRFRGTEPEPRDGIEPGHIPGTVNIPFTDFLSQEGLEKSPEEIRHLFQEKKVDLSKPLVATCGSGVTACHVALGAYLCGKPDVPIYDGSWVEWYMRARPEDVISEGRGKTH

Variants of: B1
Settings: with akt1_human AKT1, P31749
akt1_human AKT1, P31749, sequence (P31749 whole entry): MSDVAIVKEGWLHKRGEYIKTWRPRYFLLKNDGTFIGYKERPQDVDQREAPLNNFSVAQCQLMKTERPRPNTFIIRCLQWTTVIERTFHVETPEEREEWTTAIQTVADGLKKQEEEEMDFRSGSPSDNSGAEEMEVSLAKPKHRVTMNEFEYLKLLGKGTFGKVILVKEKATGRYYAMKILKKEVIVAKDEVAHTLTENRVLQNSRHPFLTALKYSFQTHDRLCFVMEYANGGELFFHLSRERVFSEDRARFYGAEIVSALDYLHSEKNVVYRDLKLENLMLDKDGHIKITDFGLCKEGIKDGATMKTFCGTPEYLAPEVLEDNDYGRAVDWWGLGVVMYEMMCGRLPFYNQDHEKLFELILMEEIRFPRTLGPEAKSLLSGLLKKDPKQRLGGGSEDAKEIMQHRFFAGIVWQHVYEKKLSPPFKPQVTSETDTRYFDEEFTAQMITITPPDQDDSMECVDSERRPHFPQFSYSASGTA
In the case of MASPQLCRALVSAQWVAEALRAPRAGQPLQLLDASWYLPKLGRDARREFEERHIPGAAFFDIDQCSDRTSPYDHMLPGAEHFAEYAGRLGVGAATHVVIYDASDQGLYSAPRVWWMFRAFGHHAVSLLDGGLRHWLRQNLPLSSGKSQPAPAEFRAQLDPAFIKTYEDIKENLESRRFQVVDSRATGRFRGTEPEPRDGIEPGHIPGTVNIPFTDFLSQEGLEKSPEEIRHLFQEKKVDLSKPLVATAGSGVTACHVALGAYLCGKPDVPIYDGSWVEWYMRARPEDVISEGRGKTH [C248A], the “effect of a mutation on the interaction” value is reported as “disrupting interaction strength”.
